The source of these data is patent US9890409B2, “Composition for astringin product” (INDUSTRY FOUNDATION OF CHONNAM NATIONAL UNIVERSITY, priority 2015, dated 2018).

For orientation: Km means the substrate concentration at which the rate is half of its maximum.

The nature of this data set: Oxidation of polydatin to astringin (3′-hydroxylation), steady-state kinetics by HPLC. The settings on record: polydatin as substrate, NADPH-generating system, 37° C., 30 minutes, 100 mM potassium phosphate buffer pH 7.4. In kind it is biochemical. As to the method:
P450 BM3 50 pmol and […] of polydatin as a substrate were added to 0.25 ml of 100 mM potassium phosphate buffer (pH 7.4) to perform a typical steady-state reaction. In order to start the reaction, the NADPH-generating system (10 mM glucose 6-phosphate, 0.5 mM NADP^+ and 1 IU yeast glucose 6-phosphate-dihydrogenase per 1 ml of final concentration) was added. 20 mM polydatin solution was prepared with DMSO, and diluted with an enzyme reaction solution, thereby preparing a reaction mixture so that the final organic solvent has a concentration of 1%/(v/v) or less. The solution was reacted at 37° C. for 30 minutes, and the reaction was terminated with ethyl-acetate which is cooled by using ice with twice amount.
The reaction mixture was centrifuged, the supernatant was […]. Then, the solvent was evaporated under a nitrogen gas, and analyzed by HPLC. A sample (30 μl) was injected into Gemini C18 column (4.6 mm×150 mm, 5 μm, Phenomenex, Torrance, Calif.). […] The mobile phase flowed at a rate of 1 ml/minute and an eluent was measured by 320 nm of UV.
In order to examine whether polydatin is oxidized by CYP102A1(P450 BM3), oxidativity of polydatin was measured at a substrate concentration fixed to be 1000 μM in the P450 wild-type CYP102A1, the CYP102A1 mutant, the CYP102A1 chimera, and the mutant of CYP102A1 chimera. […]

B1: M16V3: chimera protein: heme domain of CYP102A1 Mutant#16 (R47L/F81I/F87V/E143G/L188Q/E267V) fused with reductase domain of natural variant CYP102A1.3 (protein)
chain: TIKEMPQPKTFGELKNLPLLNTDKPVQALMKIADELGEIFKFEAPGLVTRYLSSQRLIKEACDESRFDKNLSQALKFVRDFAGDGIVTSWTHEKNWKKAHNILLPSFSQQAMKGYHAMMVDIAVQLVQKWERLNADEHIEVPGDMTRLTLDTIGLCGFNYRFNSFYRDQPHPFITSMVRALDEAMNKQQRANPDDPAYDENKRQFQEDIKVMNDLVDKIIADRKASGEQSDDLLTHMLNGKDPETGEPLDDENIRYQIITFLIAGHVTTSGLLSFALYFLVKNPHVLQKAAEEAARVLVDPVPSYKQVKQLKYVGMVLNEALRLWPTAPAFSLYAKEDTVLGGEYPLEKGDELMVLIPQLHRDKTIWGDDVEEFRPERFENPSAIPQHAFKPFGNGQRACIGQQFALHEATLVLGMMLKHFDFEDHTNYELDIKETLTLKPEGFVVKAKSKKIPLGGIPSPSTEQSAKKVRKKVENAHNTPLLVLYGSNMGTAEGTARDLADIAMSKGFAPQVATLDSHAGNLPREGAVLIVTASYNGHPPDNAKQFVDWLDQASADDVKGVRYSVFGCGDKNWATTYQKVPAFIDETLAAKGAENIADRGEADASDDFEGTYEEWREHMWSDVAAYFNLDIENSEDNKSTLSLQFVDSAADMPLAKMHGAFSANVVASKELQQLGSERSTRHLEIALPKEASYQEGDHLGVIPRNYEGIVNRVTARFGLDASQQIRLEAEEEKLAHLPLGKTVSVEELLQYVELQDPVTRTQLRAMAAKTVCPPHKVELEALLEKQAYKEQVLAKRLTMLELLEKYPACEMEFSEFIALLPSISPRYYSISSSPHVDEKQASITVSVVSGEAWSGYGEYKGIASNYLANLQEGDTITCFVSTPQSGFTLPKDSETPLIMVGPGTGVAPFRGFVQARKQLKEQGQSLGEAHLYFGCRSPHEDYLYQEELENAQNEGIITLHTAFSRVPNQPKTYVQHVMERDGKKLIELLDQGAHFYICGDGSQMAPDVEATLMKSYADVYEVSEADARLWLQQLEEKGRYAKDVWAG
modifications: CYP102A1 chimeric protein M16V3 aa seq
Turning to B1, the “kcat, astringin formation” value came to 0.00417 ± 0.0005 s⁻¹. The Michaelis-Menten constant (Km) (read-out: Km, astringin formation) turned out to be 390 ± 111 µM.
